# From patent US20250011443A1 (published 2025)
# T1: SR344 (N-terminal 1st to 344th amino acids of soluble human IL-6R) (human, UniProt P08887 20-344, limits assumed)
# T1 construct: also called recombinant soluble human IL-6 receptor; soluble human IL-6 receptor
# T1 sequence (looked up): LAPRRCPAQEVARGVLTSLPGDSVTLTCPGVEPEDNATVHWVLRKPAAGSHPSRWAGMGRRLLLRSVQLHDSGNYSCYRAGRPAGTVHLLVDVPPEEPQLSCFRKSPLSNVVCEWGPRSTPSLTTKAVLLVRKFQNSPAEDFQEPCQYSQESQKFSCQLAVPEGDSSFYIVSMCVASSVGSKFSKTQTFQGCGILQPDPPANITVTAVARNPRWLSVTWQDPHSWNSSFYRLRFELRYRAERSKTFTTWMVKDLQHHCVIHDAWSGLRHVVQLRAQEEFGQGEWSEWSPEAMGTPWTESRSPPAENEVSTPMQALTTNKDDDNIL
# B1: GPC3_H2L2 (antibody, human IgG1, kappa, V domains shown)
# VH: QVQLVQSGAEVKKPGASVKVSCKASGYTFTDYEMHWVRQAPGQGLEWMGALDPKTGDTAYSQKFKGRVTLTADKSTSTAYMELSSLTSEDTAVYYCTRFYSYTYWGQGTLVTVSS
# VL: DVVMTQSPLSLPVTPGEPASISCRSSQSLVHSNRNTYLHWYLQKPGQSPQLLIYKVSNRFSGVPDRFSGSGSGTDFTLKISRVEAEDVGVYYCSQNTHVPPTFGQGTKLEIKR
# B2: GPC3_H3L3 (antibody, human IgG1, kappa, V domains shown)
# VH: QVQLVQSGAEVKKPGASVTVSCKASGYTFTDYEMHWIRQPPGEGLEWIGAIDPKTGDTAYSESFQDRVTLTADKSTSTAYMELSSLTSEDTAVYYCTRFYSYTYWGQGTLVTVSS
# VL: DIVMTQSPLSLPVTPGEPASISCQASESLVHSNRNTYLHWYLQKPGQSPQLLIYKVSNRFSGVPDRFSGSGSGTDFTLKISRVEAEDVGVYYCSQNTHVPPTFGQGTKVEIER
# B3: RDC_23 (antibody, V domains shown)
# VH: QVQLQESGPGLVRPSQTLSLTCTVSGYSITSDHAWSWVRQPPGRGLEWIGYISYSGITTYNPSLKSRVTMLRDTSKNQFSLRLSSVTAADTAVYYCARVLARITAMDYWGQGSLVTVSS
# VL: DIQMTQSPSSLSASVGDRVTITCRASQDISSYLNWYQQKPGKAPKLLIYYTSRLHSGVPSRFSGSGSGTDFTFTISSLQPEDIATYYCGQGNRLPYTFGQGTKVEIK
# notes: also called RDC_5H / RDC_11L
# How the values were obtained:
# [1] = target: T2, soluble GPC3 core polypeptide (human, UniProt P51654 25-563); experiment: competitive ELISA, soluble GPC3 core polypeptide on the plate, competitor biotinylated GPC3-H2L2
# T2 construct: also called soluble GPC3 core protein; glypican 3 (antigen)
# Protocol: The binding activities of prepared antibodies were determined by competitive ELISA. […] The plates were incubated at 4° C. overnight to immobilize the soluble GPC3 core polypeptide onto the plates. After washing the plates immobilized with the soluble GPC3 core polypeptide three times with washing buffer using SkanWasher 400 (Molecular Devices), 200 μl of blocking buffer was added thereto. The plates were incubated at 4° C. for 30 minutes or more for blocking. The plates immobilized with the soluble GPC3 core polypeptide and blocked were washed three times with washing buffer using SkanWasher 400. […] The plates were incubated at room temperature for one hour, and then washed five times with washing buffer using SkanWasher 400 (Molecular Devices). 100 μl of goat anti streptavidin alkaline phosphatase (Zymed) 20,000-times diluted with substrate buffer was added to each well. The plates were incubated at room temperature for one hour, and then washed five times with washing buffer using SkanWasher 400. Phosphatase Substrate (Sigma) was prepared at 1 mg/ml using substrate buffer, and added to each well (100 μl). The plates were incubated for one hour.
# [2] = target: T1, SR344 (N-terminal 1st to 344th amino …); experiment: SPR (Biacore T100), antibody captured on Protein A/G, SR344 as analyte, 37 C
# Protocol: A sensor chip was prepared by immobilizing about 3,000 RU of Protein A/G onto CM5 (Biacore) with the amine coupling method. […] The running buffer used was HBS-EP+, and the flow rate was 20 μl/min. […] After three minutes of interaction, the solution was switched with HBS-EP+(Biacore), and the dissociation phase was monitored for ten minutes. After measurement of the dissociation phase, the sensor chip was regenerated by washing with 10 μl of 10 mM glycine-HCl (pH 1.5). The association, dissociation, and regeneration constituted one analytic cycle. All experiments were carried out at 37° C.
# All measurements described hereinafter in the Examples were carried out at 37° C. to kinetically analyze the antigen-antibody reaction using SR344 and protein A/G.
# T2 sequence (P51654 other isoform, or with tags, fused parts or gaps limits assumed): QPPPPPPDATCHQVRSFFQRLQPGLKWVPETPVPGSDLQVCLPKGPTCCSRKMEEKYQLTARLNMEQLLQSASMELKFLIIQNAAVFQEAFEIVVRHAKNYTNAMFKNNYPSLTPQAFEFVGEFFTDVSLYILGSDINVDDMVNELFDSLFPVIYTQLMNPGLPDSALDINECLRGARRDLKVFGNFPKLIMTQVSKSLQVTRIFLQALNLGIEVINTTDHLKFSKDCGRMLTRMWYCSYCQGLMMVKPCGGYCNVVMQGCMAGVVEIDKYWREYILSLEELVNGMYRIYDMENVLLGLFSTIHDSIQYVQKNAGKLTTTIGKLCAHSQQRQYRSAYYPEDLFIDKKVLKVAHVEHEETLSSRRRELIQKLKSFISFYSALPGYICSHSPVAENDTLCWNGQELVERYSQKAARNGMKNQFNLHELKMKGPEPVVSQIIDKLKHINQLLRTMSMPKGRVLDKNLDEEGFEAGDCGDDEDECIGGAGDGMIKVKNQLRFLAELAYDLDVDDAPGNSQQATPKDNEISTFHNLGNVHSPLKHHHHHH
Binder,binding result [1],fold weaker affinity for SR344 than for rhIL-6sR [2]
B1,binds,
B2,binds,
B3,,2 fold
